According to paper PMC5694663:

Target: JunB-6×His
Assay: co-purification

stoichiometry N: 1
B1: mCherry-BATF1 (natural protein)
chain: MPHSSDSSDSSFSRSPPPGKQDSSDDVRKVQRREKNRIAAQKSRQRQTQKADTLHLESEDLEKQNAALRKEIKQLTEELKYFTSVLSSHEPLCSVLASGTPSPPEVVYSAHAFHQPHISSPRFQP
